Measurements published in patent US20240301023A1.
pIC50, pKi: −log10 of the molar value.

Columns and labels:
[1] = target: Kappa opioid receptor (KOR) (Homo sapiens (Human)) (UniProt P41145); experiment: cell-based or functional assay
[2] = target: Kappa opioid receptor (KOR) (Homo sapiens (Human)) (UniProt P41145); experiment: HTRF Tag-Lite KOP ligand binding assay; competition against naltrindole (8 nM); Ki relative to Kd of naltrindole
[3] = target: Kappa opioid receptor (KOR) (Homo sapiens (Human)) (UniProt P41145); experiment: HTRF Tag-Lite KOP ligand binding assay; competition against naltrindole (8 nM)
[4] = target: Delta opioid receptor (DOR); experiment: cell-based or functional assay
Mu opioid receptor (MOR) = experiment: cell-based or functional assay

Row | Substance | Activity (EC50, nM), cAMP assay [1] [nM] | pKi [2] | pIC50 [3] | Log IC50 [3] | Activity (EC50, nM), cAMP assay [4] [nM] | Activity (EC50, nM), cAMP assay (Mu opioid receptor (MOR)) [nM] | KOPr desensitisation in HEK293-KOPr cells: reduction in maximal cAMP response after 6 h pretreatment at 1 µM [1] [%] | cAMP assay (ALPHAScreen), result at 1 µM peptide [1] | cAMP assay (ALPHAScreen), result at 10 µM peptide [1]
1 | SEQ ID NO. 18: NH2-Tyr-Sar-(4-NO2)Phe-Leu-Arg-NMA-NH2 (peptide) | 1.77 |  |  |  |  |  |  |  | 
2 | SEQ ID NO. 24: NH2-Tyr-Sar-(4-Cl)Phe-Leu-Arg-DArg-C7H14-CONH2 (peptide) | 3.87 | 8.17 | 7.14 | -7.14 |  |  |  |  | 
3 | Dyn1-7 (SEQ ID NO. 38: Tyr-Gly-Gly-Phe-Leu-Arg-Arg) (peptide) | 1600 |  |  |  | 870 | 3740 |  |  | 
4 | SEQ ID NO. 20: NH2-Tyr-Sar-(4-Cl)Phe-Leu-Arg-DArg-Ile-Arg-NH2 (peptide) |  |  |  |  |  |  | 50 |  | 
5 | SEQ ID NO. 19: NH2-Tyr-Sar-(4-NO2)Phe-Leu-NMA-NMA-NH2 (peptide) | 31.1 | 6.74 | 5.71 | -5.71 |  |  |  |  | 
6 | SEQ ID NO. 4: NH2-Tyr-Sar-(4-NO2)Phe-Leu-Arg-DArg-NH2 (peptide) | 8.4 | 8.55 | 7.52 | -7.52 |  |  |  | 34.9 | 40.3
